# B1: UL37 immediate early glycoprotein (Human cytomegalovirus (strain AD169) (HHV-5)), P16778 (parent)
# chain: MSPVYVNLLGSVGLLAFWYFSYRWIQRKRLEDPLPPWLRKKKACALTRRSRHRLRRQHGVIDGENSETERSVDLVAALLAEAGEESVTEDTEREDTEEEREDEEEENEARTPEVNPIDAEGLSGLAREACEALKKALRRHRFLWQRRQRARMLQHNGPQQSHHAAVFCRVHGLRGFQVSVWLLLTLLWSTGHGVSVRCTYHGTDVNRTSNTTSMNCHLNCTRNHTQIYNGPCLGTEARLPLNVTFNQSRRKWHSVMLKFGFQYHLEGWFPLRVLNESREINVTEVHGEVACFRNDTNVTVGQLTLNFTGHSYVLRAIAHTSPFESYVRWEETNVTDNATSSENTTTVMSTLTKYAESDYIFLQDMCPRFLKRTVKLTRNKTKHNVTVTGNNMTTLPVWTPECKGWTYWTTLSVMWRNRRSALLRAKSRALGHWALLSICTVAAGSIALLSLFCILLIGLRRDLLEDFRYICRDEGSSSTKNDVHRIV
# Variants of: B1
# Settings: with bax_human BAX
row,Variant,effect of a mutation on the interaction
1,L143A,decreasing interaction strength
2,R146E,decreasing interaction strength
3,R139E,decreasing interaction strength

# — IntAct's records for PubMed 23213219
